This note sets out measurements from IntAct's records for PubMed 23542155.

First the molecules themselves.
B1: Ligand-dependent nuclear receptor-interacting factor 1 (Homo sapiens), Q5T3J3 (parent)
chain: MSNNLRRVFLKPAEENSGNASRCVSGCMYQVVQTIGSDGKNLLQLLPIPKSSGNLIPLVQSSVMSDALKGNTGKPVQVTFQTQISSSSTSASVQLPIFQPASSSNYFLTRTVDTSEKGRVTSVGTGNFSSSVSKVQSHGVKIDGLTMQTFAVPPSTQKDSSFIVVNTQSLPVTVKSPVLPSGHHLQIPAHAEVKSVPASSLPPSVQQKILATATTSTSGMVEASQMPTVIYVSPVNTVKNVVTKNFQNIYPKPVTEIAKPVILNTTQIPKNVATETQLKGGQHSQAAPVKWIFQDNLQPFTPSLVPVKSSNNVASKILKTFVDRKNLGDNTINMPPLSTIDPSGTRSKNMPIKDNALVMFNGKVYLLAKKGTDVLPSQIDQQNSVSPDTPVRKDTLQTVSSSPVTEISREVVNIVLAKSKSSQMETKSLSNTQLASMANLRAEKNKVEKPSPSTTNPHMNQSSNYLKQSKTLFTNPIFPVGFSTGHNAPRKVTAVIYARKGSVLQSIEKISSSVDATTVTSQQCVFRDQEPKIHNEMASTSDKGAQGRNDKKDSQGRSNKALHLKSDAEFKKIFGLTKDLRVCLTRIPDHLTSGEGFDSFSSLVKSGTYKETEFMVKEGERKQQNFDKKRKAKTNKKMDHIKKRKTENAYNAIINGEANVTGSQLLSSILPTSDVSQHNILTSHSKTRQEKRTEMEYYTHEKQEKGTLNSNAAYEQSHFFNKNYTEDIFPVTPPELEETIRDEKIRRLKQVLREKEAALEEMRKKMHQK

Variants of B1 are the subject of the test. Particulars: with cbx5_human CBX5, P45973.
cbx5_human CBX5, P45973, sequence (P45973 whole entry): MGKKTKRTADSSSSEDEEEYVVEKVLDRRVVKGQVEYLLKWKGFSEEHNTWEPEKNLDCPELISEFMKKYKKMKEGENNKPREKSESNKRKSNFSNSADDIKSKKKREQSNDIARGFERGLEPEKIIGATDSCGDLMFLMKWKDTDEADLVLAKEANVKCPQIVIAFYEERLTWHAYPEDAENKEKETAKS
For the variant V582D;L584E, the “effect of a mutation on the interaction” value is reported as “disrupting interaction strength”.
